# According to US7998688B2, “Inhibition of EMT induction in tumor cells by anti-cancer agents” (OSI Pharmaceuticals, LLC, priority 2008, dated 2011):
# Where two headings read alike, the source gives them in different places.
# B1: TGFβ3: Human recombinant mature TGF-beta3 prepared and purified at OSI Pharmaceuticals; EMT inducer (protein, UniProt P10600 301-412, looked up)
# Transforming growth factor …: ALDTNYCFRNLEENCCVRPLYIDFRQDLGWKWVHEPKGYYANFCSGPCPYLRSADTTHSTVLGLYNTLNPEASASPCCVPQDLEPLTILYYVGRTPKVEQLSNMVVKSCKCS
# modifications: Transforming growth factor beta-3
# notes: Human recombinant mature TGF-beta3 prepared and purified at OSI Pharmaceuticals; EMT inducer
# What was measured:
# [1] = phase III, monotherapy, patients with advanced, treatment-refractory NSCLC; cited from earlier work
# [2] = phase III, first-line, in combination with gemcitabine, pancreatic cancer; cited from earlier work
# H358 cells = experiment: TaqMan quantitative RT-PCR of ZEB1 and Snail mRNA in TGFβ3-treated H358 cells; type: cell-based, human; details: H358 cells without PAK knockdown, 72 h post-TGFβ3, TaqMan (FIG. 4)
# Description: siRNA knockdown and TGFβ3 treatment: For PAK1 and PAK2 siRNA knockdown in H358 cells, cells were seeded at a density of 5×10^4 cells/well in 6-well dishes. Next day, the cells were transfected using Lipofectamine 2000 (Invitrogen, 11668-019) with 62.5 nM PAK1 (Invitrogen; validated stealth siRNAduplex2, 12936-54) 62.5 nM PAK2 (Invitrogen; validated stealth siRNA duplex 1, 12936-55), 62.5 nM PAK1 & 62.5 nM PAK2 siRNA, or 62.5 nM negative control (Invitrogen, 12935-300) according to the manufacturer's instructions. Transfection reagent was replaced 4 hours post transfection with fresh media. The cells were re-transfected as above 48 hrs after initial transfection. 4 hours post-transfection, the transfection reagent was replaced with fresh media plus or minus 10 nM TGFβ3.
# RNA isolation and TaqMan analysis: For TaqMan analysis, total RNA was isolated 72 hours after TGFβ3 treatment of H358 cells (5 and 3 days after first and second siRNA transfections). SuperArray's (SuperArray Bioscience Corp. Frederick, Md. 21704, USA) Total RNA Isolation Kit (GA-013) was used. Subsequently first strand cDNAs were made using RT PCR Array First Strand Kit (SuperArray; C-02). Quantitative-RT-PCR analyses were performed using Taqman Gene Expression Assays (Applied Biosystems, Foster City, Calif.) for PAK1, PAK2, Zeb1, and Snail.
# H358 NSCLC cells = experiment: TGFβ3 induction of EMT in H358 NSCLC cells (western blot); type: cell-based, human; details: TGFβ3 1 nM, 7 days (FIG. 1)
# Description: FIG. 1: TGFβ3 induces EMT in H358 NSCLC cells. H358 cells were treated with TGFβ3 (1 nM, 7 days) in the presence or absence of the TGFβ receptor kinase inhibitor SB43 1542. Protein extracts were analyzed by western blot using the indicated antibodies.
# Western blot analysis: For western blot analysis in H358 cells, cells were harvested 72 hrs after the addition of TGFβ3 addition (5 and 3 days after first and second siRNA transfections). For western blot analysis in HCT116/tet-on/Snail-Flag cells, cells were harvested 24 hours after Dox addition. […] Cell lysates were cleared of insoluble material by centrifugation at 15,000×g for 5 minutes at 4° C. Protein concentrations were measured in the resultant supernatant using the BCA protein analysis kit ([…].; 23225). 15 ug total lysate was used for SDS-PAGE followed by immunoblotting with the appropriate antibodies. The following antibodies were used: E-cadherin (Cell Signaling, Beverly, Mass.; 3195), vimentin (BD Biosciences, San Jose, Calif.; 550513), ErbB3 (Santa Cruz Biotechnology, Santa Cruz, Calif.; sc285), PAK1 (Cell Signaling, 2062), PAK2 (Cell Signaling, 2068), Flag (Sigma, F3165), ZEB1 (Santa Cruz, sc25388), N-Cadherin (Santa Cruz, sc7939), Fibronection (BD, 610078), β-action (Sigma, A1978).
Molecule,disease progression [1],survival [1],worsening of lung cancer-related symptoms [1],survival [2],Snail mRNA induction by TGFβ3 (H358 cells) [fold],ZEB1 mRNA induction by TGFβ3 (H358 cells) [fold],expression of epithelial markers (E-cadherin and ErbB3) (H358 NSCLC cells),"expression of mesenchymal markers (vimentin, N-cadherin, and fibronectin) (H358 NSCLC cells)",protein levels of the EMT driver ZEB1 (H358 NSCLC cells)
"C#Cc1cccc(Nc2ncnc3cc(OCCOC)c(OCCOC)cc23)c1 [erlotinib, [6,7-bis(2-methoxyethoxy)-4-quinazolin-4-yl]-(3-ethynylphenyl) amine]",delayed disease progression,significantly prolonged survival,delayed worsening of lung cancer-related symptoms,improves survival,–,–,–,–,–
B1,–,–,–,–,~2.8,6,downregulating the expression of epithelial markers (E-cadherin and ErbB3),"upregulating that of mesenchymal markers (vimentin, N-cadherin, and fibronectin)",increase in the protein levels of the EMT driver ZEB1
